Test results: paper PMC12796744

Columns and labels:
GST-HMGN1 [1] = biological target: GST-HMGN1 (UniProt P05114); assay: in vitro multiplex nucleosome-bead conjugate binding assay; details: 0.625 nM GST-HMGN1, three technical replicates, parent: est. 37000, read off a plot
GST-HMGN2 [2] = biological target: GST-HMGN2 (UniProt P05204); assay: as above; details: 0.625 nM GST-HMGN2, three technical replicates, parent: est. 54000, read off a plot
GST-HMGN2ΔC = assay: as above; details: for response (RFU (background subtracted)): 0.625 nM GST-HMGN2ΔC, three technical replicates, parent: est. 100000, read off a plot; for other: HMGN2ΔC / HMGN2 relative to canonical nuc.: parent: est. 1.0, read off a plot
GST-HMGN1ΔC = assay: as above; details: for response (RFU (background subtracted)): 0.625 nM GST-HMGN1ΔC, three technical replicates, parent: est. 110000, read off a plot; for other: HMGN1ΔC / HMGN1 relative to canonical nuc.: parent: est. 1.0, read off a plot
GST-HMGN1 [3] = biological target: GST-HMGN1 (UniProt P05114); assay: in vitro multiplex nucleosome-bead conjugate binding assay (titration); details: GST-HMGN1 at 5 on the x axis (axis uM; legend nM); raw RFU before normalization; parent: est. 160000; read off a plot
GST-HMGN2 [4] = biological target: GST-HMGN2 (UniProt P05204); assay: as above; details: GST-HMGN2 at 5 on the x axis (axis uM; legend nM); raw RFU before normalization; parent: est. 370000; read off a plot

Chain of UniProt P05114 (P05114 whole entry, looked up): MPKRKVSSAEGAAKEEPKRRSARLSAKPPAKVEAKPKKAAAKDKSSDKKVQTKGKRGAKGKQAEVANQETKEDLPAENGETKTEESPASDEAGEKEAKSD

Substance	response (RFU (background subtracted)) (GST-HMGN1 [1])	response (RFU (background subtracted)) (GST-HMGN2 [2])	response (RFU (background subtracted)) (GST-HMGN2ΔC)	other: HMGN2ΔC / HMGN2 relative to canonical nuc. (GST-HMGN2ΔC)	response (RFU (background subtracted)) (GST-HMGN1ΔC)	other: HMGN1ΔC / HMGN1 relative to canonical nuc. (GST-HMGN1ΔC)	response (GST-HMGN1 [3]) [RFU]	response (GST-HMGN2 [4]) [RFU]
canonical unmodified nucleosome (from UniProt P04908;O60814;P68431;P62805) H2A:E61A	11000	16000	52000	2.1	66000	1.7	58000	92000
canonical unmodified nucleosome (from UniProt P04908;O60814;P68431;P62805) H2A:E92K	22000	25000	38000	1.2	66000	1.1	74000	110000
